Data from US9290794B2, “Mutant protease biosensors with enhanced detection characteristics” (PROMEGA CORPORATION, priority 2010, dated 2016).

Key:
caspase-3 [1] = assay: CBS expressed in E. coli, HisLink purification fractions, caspase-3 cleavage reaction; format: biochemical
Description: The CBS variant 1A5 was cloned into a bacterial expression vector (pFNA:HQ(5×):CBS:HT(7); SEQ ID NOs:73 and 74) containing HaloTag® (C-terminal to the CBS) and a 5×HQ tag (N-terminal to CBS). The fusion protein was expressed in E. coli as follows: E. coli (KRX) was transformed with the vector. A starter culture (50 mL, LB Broth) was inoculated from a single colony and grown for 17-22 hrs at 37° C. with shaking (275 rpm). The starter culture was diluted (1:50) into induction media (500 mL, LB Broth with 0.05% glucose and 0.02% rhamnose) and growth was continued for another 17-22 hrs at 25° C. with shaking (275 rpm). The culture was divided into two 250 mL aliquots, and cells were collected by centrifugation (5,000×g for 20 min at 4° C.). One cell pellet was re-suspended in Lysis Buffer (25 mL, 50 mM HEPES (pH 7.5), 0.2× FastBreak, 2 mM DTT, 0.05% CHAPS, 50 mM Arginine, 50 mM Glutamic acid, 0.2 mg/mL Lysozyme, 10 U/mL RQ1 DNase, and Protease Inhibitors (Beckton/Dickenson Cat. No. 544779)) and incubated on ice for 30 min. After incubation, the sample was sonicated (Misonix Sonicator-3000, 4 mM total, 5 sec on, 5 sec rest, Power Setting 5). The crude lysate was clarified by centrifugation (20,000×g for 20 min at 4° C.), and the supernatant (cleared lysate) was used as the CBS source. For the caspase-3 cleavage reaction, 20 μl of the cleared lysate was mixed with 20 μL E. coli lysate expressing caspase-3 (Example XII) and incubated at room temperature for 30 min. 60 μL HEPES pH 7.5 was added, followed by the addition of 100 μL Bright-Glo Assay Reagent. Luminescence was detected as previously described above (FIG. 20).
Briefly, 25 mL of cleared lysate was made 0.5 M in NaCl (final concentration) and applied to 2 mL of settled HisLink resin that had been equilibrated with Binding Buffer (100 mM HEPES (pH7.5), 10 mM Imidazole, 500 mM NaCl). The resin was washed with 12 mL of Binding Buffer followed by washing with Elution Buffer (100 mM HEPES (pH 7.5), 1000 mM Imidazole). 1.75 mL fractions were collected.
For SDS-PAGE gel analysis, samples were labeled with CA-TAM and analyzed as described previously (FIG. 21A). For caspase-3 cleavage reaction, 20 μl of each sample was mixed with 20 μL E. coli lysate expressing Caspase-3 (Example XII) and incubated at room temperature for 30 min. 60 μL HEPES pH 7.5 was added, followed by the addition of 100 μL Bright-Glo Assay Reagent. Luminescence was detected as previously described above (Table 10 and FIG. 21B).

caspase-3 [2] = assay: Purified HQ:CBS:HT from E. coli immobilized on solid support, activation by Caspase-3; format: biochemical
[3] = HisLink purification sample HSS
[4] = HisLink purification sample NSM
[5] = HisLink purification sample WASH

B1: HQ:CBS:HT: 5×HQ tag:CBS (variant 1A5):HaloTag fusion protein expressed in E. coli (SEQ ID NOs:73 and 74) (protein)
chain: MKHQHQHQAIAMPGSTGKIVPLHAVKVVDPTTGKILGPNEPGELYFKGPMIMKGYYNNEEATKAIIDNDGWLRSGDIAYYDNDGHFYIVDRLKSLIKYKGYQVAPAEIEGILLQHPYIVDAGVTGIPDEAAGELPAAGVVVQTGKYLNEQIVQDYVASQVSIAKWLRGGVKFLDEIPKGSTGKIDRKVLRQMLEKHTNGSDEVDGSLKNILYGPEPFYPLEDGTAGEQMFDALSRYAAIPGCIALTNAHTKENVLYEEFLKLSCRLAESFKKYGLKQNDTIAVCSENSLQFFLPVIASLYLGIIVAPVNDKYIERELIHSLGIVKPRIVFCSKNTFQKVLNVKSKLKSIETIIILDLNEDLGGYQCLNNFISQNSDSNLDVKKFKPYSFNRDDQVASIMFSSGTTGLPKGVMLTHKNIVARFSIAKDPTFGNAINPTSAILTVIPFHHGFGMMTTLGYFTCGFRVVLMHTFEEKLFLQSLQDYKVESTLLVPTLMAFLAKSALVEKYDLSHLKEIASGGAPLSKEIGEMVKKRFKLNFVRQGYGLTETTSAVLITPKGVSLEPTTEDLYFQSDNDGSEIGTGFPFDPHYVEVLGERMHYVDVGPRDGTPVLFLHGNPTSSYVWRNIIPHVAPTHRCIAPDLIGMGKSDKPDLGYFFDDHVRFMDAFIEALGLEEVVLVIHDWGSALGFHWAKRNPERVKGIAFMEFIRPIPTWDEWPEFARETFQAFRTTDVGRKLIIDQNVFIEGTLPMGVVRPLTEVEMDHYREPFLNPVDREPLWRFPNELPIAGEPANIVALVEEYMDWLHQSPVPKLLFWGTPGVLIPPAEAARLAKSLPNCKAVDIGPGLNLLQEDNPDLIGSEIARWLSTLEISG
BASAL luminescence (caspase-3 [1]; HisLink elution fraction E1): 4,221 | INDUCED luminescence (caspase-3 [1]; HisLink elution fraction E1): 2,951,899 | RESPONSE (caspase-3 [1]; HisLink elution fraction E1): 699 | BASAL luminescence (caspase-3 [1]; HisLink elution fraction E2): 193,268 | INDUCED luminescence (caspase-3 [1]; HisLink elution fraction E2): 40,913,496 | RESPONSE (caspase-3 [1]; HisLink elution fraction E2): 212 | BASAL luminescence (caspase-3 [1]; HisLink elution fraction E3): 18,454 | INDUCED luminescence (caspase-3 [1]; HisLink elution fraction E3): 3,287,059 | RESPONSE (caspase-3 [1]; HisLink elution fraction E3): 178 | BASAL luminescence (caspase-3 [1]; HisLink elution fraction E4): 1,130 | INDUCED luminescence (caspase-3 [1]; HisLink elution fraction E4): 215,580 | RESPONSE (caspase-3 [1]; HisLink elution fraction E4): 191 | BASAL luminescence (caspase-3 [1]; HisLink elution fraction E5): 270 | INDUCED luminescence (caspase-3 [1]; HisLink elution fraction E5): 48,068 | RESPONSE (caspase-3 [1]; HisLink elution fraction E5): 178 | BASAL luminescence (caspase-3 [1]; [3]): 301,304 | INDUCED luminescence (caspase-3 [1]; [3]): 12,875,742 | RESPONSE (caspase-3 [1]; [3]): 43 | BASAL luminescence (caspase-3 [1]; [4]): 176,259 | INDUCED luminescence (caspase-3 [1]; [4]): 5,822,003 | RESPONSE (caspase-3 [1]; [4]): 33 | BASAL luminescence (caspase-3 [1]; [5]): 7,734 | INDUCED luminescence (caspase-3 [1]; [5]): 3,706,541 | RESPONSE (caspase-3 [1]; [5]): 479 | BASAL luminescence (caspase-3 [2]; column HaloLink-Plate): 6,880 | INDUCED luminescence (caspase-3 [2]; column HaloLink-Plate): 661,597 | RESPONSE (caspase-3 [2]; column HaloLink-Plate): 96 | BASAL luminescence (caspase-3 [2]; column HisLink): 193,268 | INDUCED luminescence (caspase-3 [2]; column HisLink): 40,913,496 | RESPONSE (caspase-3 [2]; column HisLink): 212
